The source of these data is the supplement of paper PMC7877785.

± gives the uncertainty stated by the source.

The data set in a line: self-splicing fitness, log relative to wild type (ln ratio); higher = more splicing; Tetrahymena group I intron in knt gene, E. coli kanamycin selection, DiMSum; sequences stand for … in CUCUCU…GGAGGGAAAAGUUAUCAGGCAUGCACCUGGUAGCUAGUCUUUAAACCAAUAGAUUGCAUCGGUUUAAAAGGCAAGACCGUCAAAUUGCGGGAAAGGGGUCAACAGCCGUUCAGUACCAAGUCUCAGGGGAAACUUUGAGAUGGCCUUGCAAAGGGUAUGGUAAUAAGCUGACGGACAUGGUCCUAACCACGCAGCCAAGUCCUAAGUCAACAGAUCUUCUGUUGAUAUGGAUGCAGUUCACAGACUAAAUGUCGGUCGGGGAAGAUGUAUUCUUCUCAUAAGAUAUAGUCGGACCUCUCCUUAAUGGGAGCUAGCGGAUGAAGUGAUGCAACACUGGAGCCGCUGGGAACUAAUUUGUAUGCGAAAGUAUAUUGAUUAGUUUUGGAGUACUCGUGGUCG
The procedure, abridged:
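Six replicate transformations of E. coli BL21(DE3) with a pET-22b(+) library were grown overnight at 37°C or 30°C. The library randomised all eight P1ex-region intron nucleotides, the intron lying in the knt kanamycin-resistance gene, and plates were LB agar with or without 25 μg/mL kanamycin plus 100 μg/mL carbenicillin, 50 μM IPTG and 0.2% rhamnose. Pooled colonies were amplicon-sequenced on an Illumina HiSeq 2500, and fitness is the DiMSum error-weighted combination of wild-type-normalised replicate fold changes, kanamycin versus none.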

Regarding CAGUAGCAAUAUUACGGAAA, the “self-splicing fitness (ln)” value by setting is: (30 °C) -3.56 ± 0.47; (37 °C) -3.19 ± 0.4. As to UGCGAGCAAUAUUACGCUCG, the “self-splicing fitness (ln)” value was -2.91 ± 0.22 (30 °C) and -1.92 ± 0.23 (37 °C). With GAGUAGCAAUAUUACGCGGA, the “self-splicing fitness (ln)” value (30 °C) is -2.61 ± 0.17 and the “self-splicing fitness (ln)” value (37 °C) was -2.06 ± 0.17. In the same order, the values of UACUAGCAAUAUUACGAACA are -0.0493 ± 0.19 and -0.55 ± 0.15. The corresponding values for AUUUAGCAAUAUUACGACGA are -0.672 ± 0.15 and 0.131 ± 0.18. The corresponding values for AAGAAGCAAUAUUACGUAAG are -1.37 ± 0.069 and -0.942 ± 0.083. For GUCGAGCAAUAUUACGAGCG, the “self-splicing fitness (ln)” value by setting is: (30 °C) -2.88 ± 0.19; (37 °C) -1.03 ± 0.23. With CAAUAGCAAUAUUACGCCCA, the “self-splicing fitness (ln)” value (30 °C) is -1.6 ± 0.41. For UGCGAGCAAUAUUACGGAAG, under “37 °C”, the “self-splicing fitness (ln)” value was -2.26 ± 0.34. Regarding UUGCAGCAAUAUUACGGCCU, the “self-splicing fitness (ln)” value is, setting by setting: (30 °C) -1.03 ± 0.095; (37 °C) -0.864 ± 0.18. In the same order, the values of GUAGAGCAAUAUUACGGUCA are -1.47 ± 0.098 and -0.0887 ± 0.12. In the same order, the values of GUAUAGCAAUAUUACGCAGG are -3.15 ± 0.45 and -3.36 ± 0.47.

CCCCAGCAAUAUUACGAAGU: the “self-splicing fitness (ln)” value runs as follows: (30 °C) -3.84 ± 0.18; (37 °C) -3.21 ± 0.2. Turning to GCUAAGCAAUAUUACGCGUC, the “self-splicing fitness (ln)” value runs as follows: (30 °C) -0.276 ± 0.14; (37 °C) -2.47 ± 0.19. In the same order, the values of AUACAGCAAUAUUACGCUGA are -2.14 ± 0.099 and -0.86 ± 0.1. Take AGUGAGCAAUAUUACGUCUA: the “self-splicing fitness (ln)” value (30 °C) was -2.45 ± 0.27 and the “self-splicing fitness (ln)” value (37 °C) was -1.41 ± 0.2.

On to CGUCAGCAAUAUUACGACGG, for which the “self-splicing fitness (ln)” value is -0.836 ± 0.081 (30 °C) and -0.516 ± 0.12 (37 °C). In the case of GUGAAGCAAUAUUACGUAUA, the “self-splicing fitness (ln)” value is -1.53 ± 0.077 (30 °C) and -0.347 ± 0.1 (37 °C). For the sequence UUUUAGCAAUAUUACGCUCA, the “self-splicing fitness (ln)” value reads like this: (30 °C) -0.731 ± 0.29; (37 °C) 0.849 ± 0.44. With AAUGAGCAAUAUUACGAGGC, where the note is “37 °C”, the “self-splicing fitness (ln)” value is -3.11 ± 0.4. On to CAGAAGCAAUAUUACGAUGC, for which the “self-splicing fitness (ln)” value reads like this: (30 °C) -4.82 ± 0.42; (37 °C) -2.92 ± 0.35. In the case of AAGUAGCAAUAUUACGGCGC, the “self-splicing fitness (ln)” value is -0.0482 ± 0.11 (30 °C) and 0.221 ± 0.14 (37 °C).

On to ACAAAGCAAUAUUACGGACC, for which the “self-splicing fitness (ln)” value by setting is: (30 °C) -1.02 ± 0.1; (37 °C) -1.5 ± 0.15. In the same order, the values of CGGCAGCAAUAUUACGGGUA are -3.66 ± 0.25 and -2.84 ± 0.19. The corresponding values for AACAAGCAAUAUUACGGUUA are -0.694 ± 0.058 and -0.134 ± 0.064. The corresponding values for CCACAGCAAUAUUACGACAG are -1.06 ± 0.083 and -0.0398 ± 0.088. ACGGAGCAAUAUUACGUUCC: the “self-splicing fitness (ln)” value is -3.92 ± 0.47 (30 °C) and -2.01 ± 0.37 (37 °C).

Take GGUCAGCAAUAUUACGGCAA: the “self-splicing fitness (ln)” value is 0.415 ± 0.065 (30 °C) and 0.217 ± 0.083 (37 °C). In the same order, the values of UCGGAGCAAUAUUACGUGAA are -3.41 ± 0.39 and -1.63 ± 0.14. In the same order, the values of UUACAGCAAUAUUACGAUCA are -0.398 ± 0.13 and -0.133 ± 0.17.

With UAGAAGCAAUAUUACGCGUU, the “self-splicing fitness (ln)” value was -2.89 ± 0.15 (30 °C) and -1.41 ± 0.13 (37 °C).

For the sequence GUUCAGCAAUAUUACGAAGU, the “self-splicing fitness (ln)” value reads like this: (30 °C) -0.606 ± 0.098; (37 °C) -0.391 ± 0.12. GAGAAGCAAUAUUACGAGUU: the “self-splicing fitness (ln)” value reads like this: (30 °C) -1.95 ± 0.12; (37 °C) -1.63 ± 0.13.

For the sequence UACGAGCAAUAUUACGGUUC, the “self-splicing fitness (ln)” value is, setting by setting: (30 °C) -4.18 ± 0.19; (37 °C) -2.5 ± 0.15. The corresponding values for GCAAAGCAAUAUUACGGGAG are -2.71 ± 0.11 and -2.08 ± 0.13.

For GCACAGCAAUAUUACGCGCC, the “self-splicing fitness (ln)” value (30 °C) was -2.56 ± 0.38. CCGGAGCAAUAUUACGAGUG: the “self-splicing fitness (ln)” value is, setting by setting: (30 °C) -1.61 ± 0.076; (37 °C) -0.14 ± 0.084. In the same order, the values of GUUCAGCAAUAUUACGUUAC are -1.98 ± 0.13 and -1 ± 0.094. In the case of ACGCAGCAAUAUUACGGUGC, where the note is “30 °C”, the “self-splicing fitness (ln)” value was -2.18 ± 0.15. In the case of GUAUAGCAAUAUUACGCGGA, the “self-splicing fitness (ln)” value was -3.08 ± 0.33 (30 °C) and -0.662 ± 0.2 (37 °C). For GACAAGCAAUAUUACGGACA, the “self-splicing fitness (ln)” value runs as follows: (30 °C) -1.33 ± 0.14; (37 °C) -0.153 ± 0.13. With UAGAAGCAAUAUUACGGGAU, the “self-splicing fitness (ln)” value reads like this: (30 °C) -4.15 ± 0.23; (37 °C) -2.36 ± 0.18. The corresponding values for GCCUAGCAAUAUUACGGUCC are -3.85 ± 0.33 and -1.66 ± 0.24.

For the sequence GACAAGCAAUAUUACGAUCC, the “self-splicing fitness (ln)” value reads like this: (30 °C) -2.7 ± 0.22; (37 °C) -2.08 ± 0.34. Regarding UUAGAGCAAUAUUACGGUUG, the “self-splicing fitness (ln)” value is -1.98 ± 0.15 (30 °C) and -1.16 ± 0.15 (37 °C).

As to GUCGAGCAAUAUUACGGAUC, the “self-splicing fitness (ln)” value is -1.36 ± 0.087 (30 °C) and -0.586 ± 0.097 (37 °C). For the sequence GUUGAGCAAUAUUACGUGCU, the “self-splicing fitness (ln)” value (30 °C) is -1.95 ± 0.35. On to UACAAGCAAUAUUACGCCCA, for which the “self-splicing fitness (ln)” value worked out at 0.292 ± 0.11 (30 °C) and 0.261 ± 0.13 (37 °C).

For AUAAAGCAAUAUUACGGUCA, the “self-splicing fitness (ln)” value is 0.0241 ± 0.071 (30 °C) and 0.459 ± 0.1 (37 °C). The corresponding values for UCGGAGCAAUAUUACGACAC are -3.18 ± 0.48 and -1.19 ± 0.3. On to ACUAAGCAAUAUUACGACGU, for which the “self-splicing fitness (ln)” value was -0.322 ± 0.066 (30 °C) and 0.158 ± 0.082 (37 °C). In the same order, the values of AACUAGCAAUAUUACGGAAG are -2.57 ± 0.13 and -1.49 ± 0.12.

Turning to CAGCAGCAAUAUUACGAAGA, the “self-splicing fitness (ln)” value is -2.72 ± 0.31 (30 °C) and -2.6 ± 0.38 (37 °C). For the sequence AGUAAGCAAUAUUACGUGAC, the “self-splicing fitness (ln)” value (37 °C) is -2.19 ± 0.2. As to UCGAAGCAAUAUUACGGUCA, the “self-splicing fitness (ln)” value is, setting by setting: (30 °C) -1.83 ± 0.11; (37 °C) -0.525 ± 0.12.

In the case of UUUAAGCAAUAUUACGGGUG, the “self-splicing fitness (ln)” value runs as follows: (30 °C) -1.2 ± 0.13; (37 °C) -0.234 ± 0.12. In the same order, the values of GUCCAGCAAUAUUACGUUUC are -0.538 ± 0.056 and -0.05 ± 0.074.

With UCGCAGCAAUAUUACGACUA, the “self-splicing fitness (ln)” value is, setting by setting: (30 °C) 0.0221 ± 0.14; (37 °C) -0.0509 ± 0.14. Turning to CCAUAGCAAUAUUACGUAUG, the “self-splicing fitness (ln)” value reads like this: (30 °C) -3.88 ± 0.15; (37 °C) -2.19 ± 0.13.

Consider ACCGAGCAAUAUUACGUCCU, for which the “self-splicing fitness (ln)” value was -1.71 ± 0.1 (30 °C) and -0.0861 ± 0.11 (37 °C). The corresponding values for AAACAGCAAUAUUACGGAUG are -3.43 ± 0.16 and -3 ± 0.2. For CCCAAGCAAUAUUACGUUCU, the “self-splicing fitness (ln)” value (30 °C) is -3.36 ± 0.14 and the “self-splicing fitness (ln)” value (37 °C) was -3.5 ± 0.22. Turning to UACUAGCAAUAUUACGGCGG, the “self-splicing fitness (ln)” value runs as follows: (30 °C) -0.694 ± 0.11; (37 °C) 0.0905 ± 0.13. The corresponding values for GCGAAGCAAUAUUACGUGGG are -3.87 ± 0.24 and -2.67 ± 0.26. The corresponding values for ACUCAGCAAUAUUACGAUAC are -0.894 ± 0.13 and -0.656 ± 0.19. On to AAAGAGCAAUAUUACGCCGG, for which the “self-splicing fitness (ln)” value (30 °C) is -3.8 ± 0.42 and the “self-splicing fitness (ln)” value (37 °C) was -2.53 ± 0.24. In the same order, the values of UGAUAGCAAUAUUACGGGUG are -1.56 ± 0.099 and -0.678 ± 0.11. Consider UAAGAGCAAUAUUACGACCC, for which, under “30 °C”, the “self-splicing fitness (ln)” value was -2.18 ± 0.37. For AUACAGCAAUAUUACGUCAC, the “self-splicing fitness (ln)” value (30 °C) was -3.13 ± 0.16 and the “self-splicing fitness (ln)” value (37 °C) is -2.1 ± 0.17. Turning to GGUAAGCAAUAUUACGAUCC, the “self-splicing fitness (ln)” value (37 °C) was -1.74 ± 0.42. Regarding GUAAAGCAAUAUUACGUCAU, the “self-splicing fitness (ln)” value reads like this: (30 °C) -0.555 ± 0.095; (37 °C) -0.359 ± 0.096. The corresponding values for GGGGAGCAAUAUUACGCACG are -1.89 ± 0.17 and -1.44 ± 0.24. As for CGCUAGCAAUAUUACGGUCU, the “self-splicing fitness (ln)” value is, setting by setting: (30 °C) -1.02 ± 0.1; (37 °C) -0.659 ± 0.12. In the same order, the values of UUCUAGCAAUAUUACGGGAU are -3.72 ± 0.29 and -2.37 ± 0.3. In the same order, the values of AUAGAGCAAUAUUACGACAU are 0.275 ± 0.013 and 0.437 ± 0.033. With UAUGAGCAAUAUUACGAUCC, the “self-splicing fitness (ln)” value (37 °C) is -3.06 ± 0.47. As for UGCGAGCAAUAUUACGGCAU, for the setting “30 °C”, the “self-splicing fitness (ln)” value is -2.64 ± 0.27. In the case of AAGUAGCAAUAUUACGCCCA, the “self-splicing fitness (ln)” value by setting is: (30 °C) -1.95 ± 0.35; (37 °C) 0.232 ± 0.38.
